Experimental data as given in article PMC6854463, “Structural Basis for Broad HIV-1 Neutralization by the MPER-Specific Human Broadly Neutralizing Antibody LN01” (Cell Host & Microbe, 2019).
Changes are numbered by the printed parent chain. Where “and” joins values, the source holds several entries; their conditions need not be identical. Identical values can stand only once.

B1: LN01 gH/UCA (antibody, V domains shown)
VH: QLQLQESGPGLVKPSETLSLTCTVSGGSISSSSYYWGWIRQPPGKGLEWIGSIYYSGSTYYNPSLKSRVTISVDTSKNQFSLKLSSVTAADTAVYYCVRMPSHGFWSTSFSYWYFDLWGRGTLVTVSS
VL: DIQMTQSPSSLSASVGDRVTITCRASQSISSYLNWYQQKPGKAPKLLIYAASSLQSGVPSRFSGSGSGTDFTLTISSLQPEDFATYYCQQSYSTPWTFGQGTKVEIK
notes: IgG; source: Expi293F, transient transfection (PEI), purified by protein A chromatography
B2: LN01 UCA/sL (antibody, V domains shown)
VH: B1 VH with T108G, S109Y
VL: DIQMTQSPSSLSASVGDKVTITCRASQSVTKYLNWYQFKTGQAPRILIYGTYTLLSGVSPRFSGAGSGSLYTLTITNIQPEDFATYYCQQAHSTPWTFGQGTHVAAN
notes: as for B1
B3: LN01 UCA/gL (antibody, V domains shown)
VH: B1 VH with T108G, S109Y
VL: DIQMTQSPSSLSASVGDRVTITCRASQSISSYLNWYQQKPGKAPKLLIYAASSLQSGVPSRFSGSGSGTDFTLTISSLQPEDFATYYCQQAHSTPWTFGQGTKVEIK
notes: as for B1
B4: LN01 gH/sL (antibody, V domains shown)
VH: B1 VH
VL: B2 VL
notes: as for B1
B5: LN01 gH/gL (antibody, V domains shown)
VH: B1 VH
VL: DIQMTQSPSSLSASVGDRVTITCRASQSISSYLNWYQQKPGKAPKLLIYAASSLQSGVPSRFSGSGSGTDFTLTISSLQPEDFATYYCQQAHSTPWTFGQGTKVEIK
notes: as for B1
B6: LN01 UCA/UCA (antibody, V domains shown)
VH: B1 VH with T108G, S109Y
VL: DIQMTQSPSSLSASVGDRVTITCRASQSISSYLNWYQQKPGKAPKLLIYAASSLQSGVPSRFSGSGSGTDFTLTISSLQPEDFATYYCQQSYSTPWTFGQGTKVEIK
notes: also called the UCA version of LN01; source: Expi293F, transient transfection (PEI), purified by protein A chromatography
B7: LN01 sH/gL (antibody, V domains shown)
VH: QVQLEESGPGLVQPWGTLSLTCRVSGDSVSNDNYYWAWIRQTPGRELQVIGTIYYSGTTYYNPSLRNRVTISLDKSVNVVSLRLGSVSAADTAQYYCVRMPSHGFWSTSFSYWYFDLWGRGHFVAVSW
VL: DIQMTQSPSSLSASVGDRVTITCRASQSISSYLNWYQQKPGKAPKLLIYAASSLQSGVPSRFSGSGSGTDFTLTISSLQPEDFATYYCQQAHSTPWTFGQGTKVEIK
notes: as for B1
B8: LN01 sH/gL-FR (antibody, V domains shown)
VH: B7 VH
VL: DIQMTQSPSSLSASVGDRVTITCRASQSVTKYLNWYQQKPGKAPKLLIYGTYSLQSGVPSRFSGSGSGTDFTLTISSLQPEDFATYYCQQAHSTPWTFGQGTKVEIK
notes: as for B1
B9: LN01 recombinant IgG1 monoclonal antibody (antibody, V domains shown)
VH: B7 VH
VL: B2 VL
notes: also called LN01 IgG1; IgG1 LN01 antibody; source: Expi293F, transient transfection (PEI), purified by protein A chromatography

Key:
Settings in all cases: both partners purified
[1] = target: T1, MPER-TM2 (gp41 residues 630-711, containing the complete TM region) (HIV-1 group M; Env Q74599 (HXB2-like), …, UniProt Q74599); experiment: BLI; Octet Red; biotinylated IgG on Streptavidin biosensors; MPER-TM2 in 25 mM HEPES pH 7.5, 150 mM NaCl, 0.1 % Fos-Choline-12, 25°C; global fit 1:1 model or steady state analysis
T1 construct: not shown: His-tag, N-terminal, cleaved; flag-tag, N-terminal, cleaved

[2] = target: T2, MPER-TM1 peptide (gp41 residues 671-689) (HIV-1, strain  (6SNC maps to …)); experiment: SPR
T2 construct: also called gp41 MPER-TM1; source: synthetic peptide (Smart Bioscience, Grenoble)

[3] = target: T1, MPER-TM2 (gp41 residues 630-711, …); experiment: SPR

Row | Binder | Kd [1] [nM] | binding result [1] | other results
1 | B1 | 4700 ± 1700 | – | –
2 | B2 | – | no binding | –
3 | B3 | – | no binding | –
4 | B4 | 6.2 ± 0.02 | – | –
5 | B5 | 1400 | – | –
6 | B6 | – | no binding | –
7 | B7 | 453 ± 82 | – | –
8 | B8 | 7 ± 0.03 | – | –
9 | B9 | 2.3 ± 0.01 | – | Kd [2]: 161 nM and 170 nM; Kd [3]: 13 nM
